Tested on: Hela cells
Experiment: Flow cytometry binding to Hela cells
Settings: transfection supernatant, FIG. 1
Protocol: The binding activity of the antibodies to Hela cells (ATCC® CCL-2, provided by COBIOER) and to RPTEC/TERT1 cells (ATCC® CRL-4031, provided by COBIOER) was tested by flow cytometry using the transfection supernatants. Briefly, target cells were digested with 0.02% EDTA-2Na, centrifuged at 1500 rpm for 3 mins, and resuspended with PBS. After counting, the cells were added to a 1.5 ml centrifuge tube with 1×10^6 cells per tube, centrifuged at 1500 rpm for 5 minutes, and the supernatant was discarded. Then all the operations were carried out on an ice bath. 100 μL of transfection supernatant was added to each 1.5 ml centrifuge tube. Blank cells, blank cells plus secondary antibody, medium and HEK293 supernatant were set up as the controls. The reaction was performed on an ice bath for 1 hour. Then the cells were pelleted and washed twice with PBS. The secondary antibody, goat anti-Human IgG (PE, abcam, ab98596), was diluted (1:200) and added using 100 μL per tube. The reaction was performed on an ice bath for 1 hour in the dark. The cells were pelleted again and washed twice with PBS, resuspended in 300 μL PBS, and FL2 fluorescence readings were measured by cytometry. The results were analyzed by FlowJoTM10 software.
Anti-FOLR1 antibody binding to Hela and RPTEC/TERT1 cells was tested by FACS. The study was carried out as described above. […]

B1: F40: fully human anti-FOLR1 antibody (IgG1), VH SEQ ID NO:9, VL SEQ ID NO:10 (antibody, V domains shown)
VH: EVQLLESGGGVVQPGRSLRLSCAASGFTFSSYAMHWVRQAPGKGLEWVAVISYDGSNKYYADSVKGRFIISRDNSKNTVYLQMNSLRAEDTAVYYCARPTYVFTYTGSSFDYWGQGTQVTVSS
VL: DIQVTQSPSSLSASLGDTVSITCRASRGLTDSVAWYQQKPGQAPKLLIYAASTLQSGVPSRFGGSGSGSYFTLTITSLQPEDVATYYCQNYKSAPWTFGQGTKVEIK
modifications: Synthetic F40 VH amino acid sequence; Synthetic F40 VL amino acid sequence
  Hela cell binding (in words): weakly positive

Reference: US20240209080A1, “FOLR1 BINDING AGENTS, CONJUGATES THEREOF AND METHODS OF USING THE SAME” (PROFOUNDBIO US CO., priority 2021, published 2024)
